Experimental data from CN113929783A (FUZHOU MAIXIN BIOTECHNOLOGY DEV CO LTD, dated 2022).

Molecular target: T1, 人CD99蛋白 (组织切片中表达) (human, UniProt P14209 23-185)
T1 construct: whole, on cells
T1 sequence (looked up): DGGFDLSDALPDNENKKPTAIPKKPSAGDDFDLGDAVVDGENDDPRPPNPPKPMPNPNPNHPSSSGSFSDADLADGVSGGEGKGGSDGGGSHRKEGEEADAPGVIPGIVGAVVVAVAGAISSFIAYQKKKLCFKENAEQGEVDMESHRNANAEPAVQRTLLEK
Test: IHC on 8 ovarian granulosa cell tumours and 8 primitive neuroectodermal tumours

- binding result: binds
B1: 抗CD99蛋白单克隆抗体(10D2A10F9) (antibody, V domains shown)
VH: EVQLQQSGAELVKPGASVKLSCTASGFNIKDTYMHWVKQRPEQGLEWIGRIDPANGNTKYDPKFQGKATITADTSSNTAYLQLSSLTSEDTAVYYCGRRGFAYWGQGTLVTVSA
VL: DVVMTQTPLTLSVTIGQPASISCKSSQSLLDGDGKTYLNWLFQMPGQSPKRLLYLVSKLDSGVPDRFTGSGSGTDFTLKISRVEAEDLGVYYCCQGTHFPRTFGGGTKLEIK
notes: also called CGMCC NO.22316
